Source: FireProtDB (doi:10.1021/bi000849s)

Settings: Homo sapiens, Thermal, DSC, reversible: yes, whole UniProt chain shown

B1: Lysozyme C wild type, P61626 (protein)
chain: MKALIVLGLVLLSVTVQGKVFERCELARTLKRLGMDGYRGISLANWMCLAKWESGYNTRATNYNAGDRSTDYGIFQINSRYWCNDGKTPGAVNACHLSCSALLQDNIADAVACAKRVVRDPQGIRAWVAWRNRCQNRDVRQYVQGCGV
For B1, which Tm (pH 2.2, glycine hydrochloride 0.05 M) is on record?
The Tm was 57.5 °C.

And the Tm (pH 2.3, glycine hydrochloride 0.05 M, KCl 0.2 M)?
Its Tm is 56.2 °C.

And the Tm (pH 4, sodium acetate 0.02 M)?
The Tm was 80.1 °C.

What about the Tm (pH 4.5, sodium acetate 0.02 M, KCl 0.2 M) of the same protein?
The Tm was 77.7 °C.
